Test results reported in publication PMC9333989.

B1: mouse CD4, wild type [mouse] / Lck (Src kinase) [mouse (endogenous in 58α−β− T cell hybridoma)] (parent)
chain 1: KTLVLGKEGESAELPCESSQKKITVFTWKFSDQRKILGQHGKGVLIRGGSPSQFDRFDSKKGAWEKGSFPLIINKLKMEDSQTYICELENRKEEVELWVFKVTFSPGTSLLQGQSLTLTLDSNSKVSNPLTECKHKKGKVVSGSKVLSMSNLRVQDSDFWNCTVTLDQKKNWFGMTLSVLGFQSTAITAYKSEGESAEFSFPLNFAEENGWGELMWKAEKDSFFQPWISFSIKNKEVSVQKSTKDLKLQLKETLPLTLKIPQVSLQFAGSGNLTLTLDKGTLHQEVNLVVMKVAQLNNTLTCEVMGPTSPKMRLTLKQENQEARVSEEQKVVQVVAPETGLWQCLLSEGDKVKMDSRIQVLSRGVNQTVFLACVLGGSFGFLGFLGLCILCCVRCRHQQRQAARMSQIKRLLSEKKTCQCPHRMQKSHNLI
chain 2: MGCVCSSNPEDDWMENIDVCENCHYPIVPLDSKISLPIRNGSEVRDPLVTYEGSLPPASPLQDNLVIALHSYEPSHDGDLGFEKGEQLRILEQSGEWWKAQSLTTGQEGFIPFNFVAKANSLEPEPWFFKNLSRKDAERQLLAPGNTHGSFLIRESESTAGSFSLSVRDFDQNQGEVVKHYKIRNLDNGGFYISPRITFPGLHDLVRHYTNASDGLCTKLSRPCQTQKPQKPWWEDEWEVPRETLKLVERLGAGQFGEVWMGYYNGHTKVAVKSLKQGSMSPDAFLAEANLMKQLQHPRLVRLYAVVTQEPIYIITEYMENGSLVDFLKTPSGIKLNVNKLLDMAAQIAEGMAFIEEQNYIHRDLRAANILVSDTLSCKIADFGLARLIEDNEYTAREGAKFPIKWTAPEAINYGTFTIKSDVWSFGILLTEIVTHGRIPYPGMTNPEVIQNLERGYRMVRPDNCPEELYHLMMLCWKERPEDRPTFDYLRSVLDDFFTATEGQYQPQP

Variants of: B1
Assay: co-IP of Lck with CD4 from sucrose gradient fractions
Settings: with Lck (Src kinase) [mouse (endogenous in 58α−β− T cell hybridoma)], mean ± SEM of three independent experiments, read off a plot
[1] = DRM fractions (center graph), parent: 3.7
[2] = DSM fractions (right graph), parent: 6.9
[3] = DRM fractions (center graph), parent: 2.6
[4] = DSM fractions (right graph), parent: 8.9

Row | Variant | response [1] | response [2] | response [3] | response [4]
1 | chain 1 C392S C395S | 2.1 AUC | 8.9 AUC | – | –
2 | chain 1 G377V G380L | 3.5 AUC | 6.4 AUC | – | –
3 | chain 1 G377V G380L C392S C395S C418S C420S | 0.85 AUC | 1.2 AUC | – | –

The remaining lines, values ahead:

Row | response [1] | response [2] | response [3] | response [4] | Variant
4 | – | – | 0.87 AUC | 6.3 AUC | chain 1 S406D L411A L412A S413D
5 | – | – | 3.2 AUC | – | chain 1 S406A S413A
6 | – | – | 1.8 AUC | 8.4 AUC | chain 1 S406D S413D
